Laboratory results: patent US20210198377A1 (XDCEXPLORER SHANGHAI, published 2021)
Numbering of substitutions follows the chain as printed. One block for each binder: values may come before it.

Experiments:
[1] = biological target: T1, human TPBG (full length, on cells) (human, UniProt Q13641 32-420); experiment: FACS on CHO-K1-hTPBG cells
T1 construct: whole, on cells; On transfected HEK293 or CHO-K1 cells; for the tumour lines NCI-H1568 and NCI-H1299 it is the cells' own TPBG; also called hTPBG; 5T4
T1 sequence (looked up): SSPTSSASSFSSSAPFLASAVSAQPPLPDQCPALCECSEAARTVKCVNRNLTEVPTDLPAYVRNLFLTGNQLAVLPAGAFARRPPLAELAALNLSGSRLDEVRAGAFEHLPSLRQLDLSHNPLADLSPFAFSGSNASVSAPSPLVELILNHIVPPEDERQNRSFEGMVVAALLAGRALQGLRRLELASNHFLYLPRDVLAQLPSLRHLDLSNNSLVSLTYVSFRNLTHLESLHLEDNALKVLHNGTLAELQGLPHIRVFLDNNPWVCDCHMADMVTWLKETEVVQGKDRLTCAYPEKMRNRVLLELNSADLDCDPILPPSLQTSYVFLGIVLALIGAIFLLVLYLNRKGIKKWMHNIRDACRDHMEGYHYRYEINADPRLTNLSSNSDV
From the text: The stable cell lines CHO-k1-hTPBG, CHO-k1-cTPBG, CHO-k1-mTPBG (i.e. the CHO-k1-hTPBG 3A2F1, CHO-k1-cTPBG 3F13G4 and CHO-k1-mTPBG 3A3 shown in table 7) and CHO-K1 cells were expanded to a 90% of confluency in T-75 cell culture flasks, the culture medium were removed, and cells were then rinsed twice with HBSS buffer (Hanks Balanced Salt Solution, purchased from Invitrogen) and lysed with enzyme-free cell dissociation buffer (Versene solution purchased from Life technology) and harvested. Harvested cells were rinsed with HBSS buffer twice and counted before diluting with HBSS buffer to 2×10⁶ cells /mL, and 10% goat serum blocking buffer was then added, wherein the percentage is the mass percentage. Cells were incubated on ice for 30 min, and then washed twice with HBSS buffer by centrifugation. The harvested cells were resuspended with FACS buffer (HBSS+1% BSA, wherein the percentage is mass percentage) to a concentration of 2×10⁶ cells /mL. 100 μL per well of the cells was aliquoted to 96-well FACS reaction plates, and 100 μL per well of test sample—the purified TPBG antibody obtaining from Embodiment 2 was added before incubating on ice for 2 h. The plate was washed with the FACS buffer twice by centrifugation, and 100 μL per well of fluorescence (Alexa 488) labeled secondary antibody (purchased from Invitrogen) was then added and incubated on ice for 1 h. The plate was washed with the FACS buffer for three times by centrifugation, follow by resuspending in 100 μL of fixation buffer (4% (v/v) paraformaldehyde). Cells were washed with FACS buffer twice after 10 min, follow by resuspending with 100 μL of FACS buffer. The results were measured and analyzed by FACS (FACS Calibur, purchased from BD). Data analysis was performed by software (CellQuest) to obtain mean fluorescence intensity (MFI) of the cells, follow by calculating EC50 value by software (GraphPad Prism) analysis and data fitting. The analysis results were shown in Table 8 and FIGS. 7-10, and data in FIGS. 7-10 show the mean fluorescence intensity (MFI) of cells.

human TPBG-hFc [2] = biological target: T2, human TPBG-hFc (human, UniProt Q13641 32-355); experiment: ELISA, coated human TPBG-hFc 1.0 ug/mL; antibody 20 nM
T2 construct: also called immunogen A; hFc tagged TPBG protein; not shown: The human IgG Fc fragment of the pCpC vector (Invitrogen V044-50) and any linker to it
T2 sequence: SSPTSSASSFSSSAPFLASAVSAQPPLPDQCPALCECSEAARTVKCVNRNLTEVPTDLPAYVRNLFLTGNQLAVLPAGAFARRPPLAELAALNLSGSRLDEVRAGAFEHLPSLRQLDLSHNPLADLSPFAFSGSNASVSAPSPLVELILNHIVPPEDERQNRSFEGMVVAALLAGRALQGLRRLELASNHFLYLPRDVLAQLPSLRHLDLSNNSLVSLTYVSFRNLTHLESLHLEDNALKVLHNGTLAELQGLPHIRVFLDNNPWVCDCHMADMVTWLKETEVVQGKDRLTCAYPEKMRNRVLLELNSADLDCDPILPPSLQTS
Method: (§1) The purified immunogen A (as for its method of preparation please refer to step 1 in Example 1) diluting with PBS to a final concentration of 1.0 μg/mL was aliquoted into a 96-well ELISA plate at 100 μL per well, and sealed with a parafilm and incubated at 4° C. overnight. The plate was washed twice with plate washing buffer (PBS containing 0.01% (v/v) Tween 20), and blocked with blocking buffer (PBS containing 0.01% (v/v) Tween 20 and 1% (w/w) BSA) at room temperature for 2 h. The blocking buffer was discarded, and 100 μL per well of the purified antibody obtained from Embodiment 2 was added. After incubating at 37° C. for 2 h, the plate was washed for three times with plate washing buffer (PBS containing 0.01% (v/v) Tween 20). HRP (horseradish peroxidase)-labeled secondary antibody (purchased from Sigma) was added and incubated at 37° C. for 2 h, and the plate was washed for three times using plate washing buffer (PBS containing 0.01% (v/v) Tween 20). 100 μL of TMB substrate was aliquoted into each well, incubated at room temperature for 30 min, and 100 μL of stop buffer (1.0N HCl) per well was subsequently added. A₄₅₀ₙₘ values were read using the ELISA plate reader (SpectraMax 384plus purchased from Molecular Device), and the results were shown in FIG. 6 and table 6. […] In Table 6 the IgG control herein is a mice IgG control, the data in the Table are OD₄₅₀ₘₙ values, and Blank means the OD₄₅₀ₘₙ value when there is only PBS buffer in the plate.

human TPBG-hFc [3] = biological target: T2, human TPBG-hFc; experiment: ELISA, coated human TPBG-hFc 1.0 ug/mL; antibody 200 nM
Method: as §1

human TPBG-hFc [4] = biological target: T2, human TPBG-hFc; experiment: ELISA, coated human TPBG-hFc 1.0 ug/mL; antibody 0.02 nM
Method: as §1

B1: 99E12C7H1 (antibody, V domains shown)
VH: QIQLVQSGPELKKPGETVKISCKPSGYTFTAYGLSWVKQAPGQGFQWMGWINTYSGVPTYTDDFKGRFAFSLETSAGTASLQITNLKNEDTATYFCARSSIPPFEYWGPGTTLTVSS
VL: SFVMTQSPKFLLVSVGDRVTITCKASQSVSNDVAWYQQKPGQPPRVLIYFASNRYTGVPDRFTGSGYGTDFTFTISTVQAEDLALYFCQQDYSSPWTFGGGTKLEIK
notes: Mouse hybridoma antibody purified from culture supernatant; also called TPBG antibody; lead antibody
EC50 [1]: 3.54 nM | OD450nm (human TPBG-hFc [2]): 2.88 OD450nm | OD450nm (human TPBG-hFc [3]): 2.93 OD450nm | OD450nm (human TPBG-hFc [4]): 0.78 OD450nm

B3: 39A11G5F2 (antibody, V domains shown)
VH: QVQLQQSGAELMKPGASMRLSCKATGYTFTGYWLEWIKRRPGHGLEWIGEILPGRGSTNYNEKFKGKATFTAETSSNTAYMQLTSLTTEDSAIYYCARGGRDFDNWGQGTTLTVSS
VL: DIQMTQSTSSLSASLGDRVTISCSASQGINNHLNWYQQKPDGTVKLLIYYTSSLHSGVPSRFSGSGSGTDYSLTISNLEPEDIAIYYCQQFSKLPYTFGGGTKVEMK
notes: as for B1
EC50 [1]: 2.34 nM | OD450nm (human TPBG-hFc [2]): 2.5 OD450nm | OD450nm (human TPBG-hFc [3]): 2.55 OD450nm | OD450nm (human TPBG-hFc [4]): 0.3 OD450nm

B4: 52C9E9F6 (antibody, V domains shown)
VH: QVQLQQSGAELMKPGASVKLSCKATGYTFTGYWIEWIKQRPGHGLEWIGEILPGRGSTDYNEKFKGKATFTADTSSNTAYMQLSSLTTEDSAIYYCTRGRLDFTYWGQGTLVTVSA
VL: B3 VL with S7T, N30R, H32Y, I85T, F91Y, L94V, Y96W, V104L, M106I
notes: as for B1
EC50 [1]: 3.27 nM | OD450nm (human TPBG-hFc [2]): 2.69 OD450nm | OD450nm (human TPBG-hFc [3]): 2.65 OD450nm | OD450nm (human TPBG-hFc [4]): 0.27 OD450nm

B5: 106D5G3D10 (antibody, V domains shown)
VH: EVQLVESGGGLVKPGGSLKLSCAASGFTFSDYGMHWVRQAPEKGLEWVGYISSGTYVVYYADTVKGRFTISRDNAKNTLFLQMTSLRSEDTAIYYCSTYGSNPFDYWGQGTTLTVSS
VL: QLVLTQSPAIMSASPGEKVTITCSATSSVSSMHWFQQKPVTSPKLWIYSTSNLASGVPTRFSGSGSGTSYSLTISRMEAEDAATYYCQQRSGYPPIFTFGSGTKLEIK
notes: as for B1
EC50 [1]: 1.72 nM | OD450nm (human TPBG-hFc [2]): 2.82 OD450nm | OD450nm (human TPBG-hFc [3]): 2.88 OD450nm | OD450nm (human TPBG-hFc [4]): 0.56 OD450nm

B6: 5G4H10G5 (antibody, V domains shown)
VH: EVQLVESGGDLVQPGGSLKLFCAASGFTFSTYGLSWVRQTPDKRLELVATITNNDGSAYYPDSVKGRFTISRDKAKNTLFLQMTSLKSEDTAMYYCARETGFGSSYLFDYWGQGTLVTVSA
VL: NIVMTQTPKFLLVSAGDRVTITCKASQSVSNDVAWYQQKPGQSPKLLIYFATNRYTGVPNRFTGSGYGTEFTFTISSVQAEDLAVYFCQQDYSSPTFGGGTKLEIK
notes: as for B1
EC50 [1]: 1.75 nM | OD450nm (human TPBG-hFc [2]): 2.8 OD450nm | OD450nm (human TPBG-hFc [3]): 2.72 OD450nm | OD450nm (human TPBG-hFc [4]): 0.34 OD450nm

B8: 36A10D8B12 (antibody, V domains shown)
VH: DVQLQESGPGMVKPSQSLSLTCTVTGYSITSGYDWHWIRHFPGNKLEWMGYISYSGNTNYNPSLKSRISITHNTSKNHFFLRLNSVTTEDTATYYCARGYGNWDAMDYWGQGTSVTVSS
VL: DIVMTQSQKFMSTSVGDRVSVTCKASQIVDTNVAWYQQKPGQSPKALISSASYRYSGVPDRFTGSGSGTDFTLTISNVQSEDLAEYFCQQYNSYPLTFGAGTKLELT
notes: as for B1
EC50 [1]: 0.94 nM | OD450nm (human TPBG-hFc [2]): 3.07 OD450nm | OD450nm (human TPBG-hFc [3]): 2.51 OD450nm | OD450nm (human TPBG-hFc [4]): 0.51 OD450nm

More lines, now with the values ahead:

EC50 [1]: 0.94 nM | OD450nm (human TPBG-hFc [2]): 2.63 OD450nm | OD450nm (human TPBG-hFc [3]): 2.61 OD450nm | OD450nm (human TPBG-hFc [4]): 0.35 OD450nm
B2: 37H9C5G2 (antibody, V domains shown)
VH: QVQLQQSDAELVRPGASVKMSCKVSGYTFTDHTIHWMKQRPEQGLEWIGYIYPRDGSGTYNEKFKGKATLTADKSSSTAYMQLNSLTSEDSAVYFCARDGSSHYWYFDVWGTGTTVTVSS
VL: DIQMTQSPASLSASVGETVTITCRASEIIYNYLAWYQQKQGKSPQLLVYNAKTLAEGVPSRFSGSYSGTQFSLNINSLQSEDFGIYYCQHHHDTPLTFGAGTKLDLK
notes: as for B1

EC50 [1]: 0.85 nM | OD450nm (human TPBG-hFc [2]): 2.62 OD450nm | OD450nm (human TPBG-hFc [3]): 2.6 OD450nm | OD450nm (human TPBG-hFc [4]): 0.48 OD450nm
B7: 103E2E9C2 (antibody, V domains shown)
VH: EVQLQQSGPVLVKPGASVKMSCEASGYSFIDYYMSWVKQSRGRSLEWIGVFNPYSGEIIYNQKFKGKATLTVDKSSSTAYMELSSLTSEDSGVYSCARLRISYYAIDYWGQGTSVAVSS
VL: ENVLTQSPAIMSASPGEKVTMTCRATSSVSSGHFHWYQQKSGASPKVWIYSTSNLASGVPARFSGSGSGTSFSLTISSVEAEDVATYFCQQYSGYPLTFGGGTKLEIK
notes: as for B1

EC50 [1]: 0.65 nM | OD450nm (human TPBG-hFc [2]): 2.83 OD450nm | OD450nm (human TPBG-hFc [3]): 2.82 OD450nm | OD450nm (human TPBG-hFc [4]): 0.29 OD450nm
B9: 12B12C7C3 (antibody, V domains shown)
VH: DVQLVESGGGLVQPGGSRKLSCAASGFTFSNFGMHWVRQAPEKGLEWVAYISSGSTSFYYADTVKGRFTISRDNPKNTLFLQMTSLRSEDTAMYYCSRTNSLLRGFFDAWGAGTTVTVSS
VL: DIVLTQSPASLAVSLGQRATISCRASQSVSSSSYTYLHWYQQKPGQPPKLLIKSASNLESGVPARFSGTGSGTDFTLNIHPVEEEDTATYYCQHSWEIPLTFGAGTKLELK
notes: as for B1

EC50 [1]: 0.63 nM | OD450nm (human TPBG-hFc [2]): 2.59 OD450nm | OD450nm (human TPBG-hFc [3]): 2.6 OD450nm | OD450nm (human TPBG-hFc [4]): 0.46 OD450nm
B10: 28D4E6A9 (antibody, V domains shown)
VH: DVQLVESGGGLVRPGGSLKLSCAASGFTFSNYVMSWARQSPEKRLEWVAEISTGGSHTYYSDTVTGRFTISRDNAKKALYLEMSSLRSEDTAIYYCIMFYYGSSYSMDYWGQGTSVTVSS
VL: DIQMTQSTSSLSASLGDRITISCRASQDIRNYLNWYQQKPDGTVKLLIYHTSRLHSGVPSRFSGSGSGTDYSLTISNLEQEDIATYFCQQGDTLPLTFGAGTRLELK
notes: as for B1
